Target: T1, His-tagged 2Ig-B7H3 (R&D Systems) (UniProt Q5ZPR3-2 29-245, limits assumed)
T1 construct: the 2Ig form is an isoform of it; also called 2Ig-B7H3(His); xHis 2Ig (when captured by mouse anti-poly His antibody); not shown: His tag
T1 sequence (looked up): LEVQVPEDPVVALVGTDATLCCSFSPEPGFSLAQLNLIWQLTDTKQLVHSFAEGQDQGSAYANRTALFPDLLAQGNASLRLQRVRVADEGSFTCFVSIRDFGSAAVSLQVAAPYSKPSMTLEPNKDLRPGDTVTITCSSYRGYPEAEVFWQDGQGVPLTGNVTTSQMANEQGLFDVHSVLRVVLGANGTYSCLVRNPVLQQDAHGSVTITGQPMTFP
Assay: ELISA, 5 µg/ml 2Ig-B7H3(His) captured by mouse anti-poly His antibody, streptavidin-HRP
Method: To further investigate mu-anti-TES binding to 4Ig-B7H3, ELISA crosslinking experiments with a His-tagged 2Ig-B7H3 (R&D Systems) were performed. 5 µg/ml of a capture antibody, mouse anti-poly His antibody, was coated on a 96-well plate as a control, a no coat well (naked well) was also used. The wells with the capture antibody were then blocked with HBSS+1% BSA. 5 µg/ml of 2Ig-B7H3(His) or 4Ig-B7H3(His) was introduced into naked wells or capture antibody-coated wells. As a control, 5 µg/ml of 2Ig-B7H3(Fc) was introduced into naked wells. The plate was then blocked again with HBSS+1% BSA. Then […] of biotinylated mu-anti-TES7, BLA8, PA20 or STO5 (another anti-B7H3 antibody that only recognizes the 4Ig form of B7H3) was introduced into the plate. The bound biotinylated antibodies were then detected with streptavidin-HRP using standard protocols.

B1: mu-anti-TES7 (antibody, V domains shown)
VH: QVQLQQSGPELVKPGTSVRISCKASGYTFTSYYIHWVKQRPGQGLEWIGWIYPGNVNTKYNENFKGKATLTADKSSSTAYMQLSSLTSEDSAVYFCARGGYFFDQWGQGTTLTVSS
VL: DVQITQSPSYLAASPGETITVNCRASESISKYLAWYQEKPGKTNKLLIYSGSTLQSGIPSRFSGSGSGSDFTLTISSLEPEDFAMYYCHQHNEFPLTFGAGTKLELK
notes: Mouse monoclonal IgG purified from hybridoma supernatant on protein G; also called mouse anti-huTES7 antibody; murine anti-TES7 antibody
binding result: no binding

From patent US7718774 (MacroGenics, dated 2010)
